# Experiment: soluble on expression in E. coli; label from the status in PepcDB or PDB records
row,Sequence,soluble on expression in E. coli
1,MGSDKIHHHHHHMNSLPTESPQSKKSLPSTSMLAAFDAAARTGSFTAAAKDLALTQGAISRQVNALEMQISVNLFHRHKQNISLTEAGKTYAKEVNSALSHIRSATLNLMTNPDGGILNIAILPTFGSRWLMPRLADFLAKHPRITINTVCKLSQFDFSHEDIHCAIHFGKADWSQANCTFLMAEESVPVCSPKLFEQAELAKVDNVCARLINLPLLHIATRPNAWQHWFDEHNVDSTTKEQPKKKTLQDMHFEQFSIVTNAAVAGLGVALLPKFLVESELQRGELQVICNKPQRTDNGYYLVTPNDKLNYAPMVAFTRWLSQVIKSEKPSILNK,not soluble
2,GCGVEEKTEVQLLKEMPKPKAMTIDPSLSQKEATEMVHAAQRFYAFWDTGKEELIPQTVTENFFDHTLPKGRPQGTEGLKFAAQNFRKIVPNIHCEIEDLLVVGDKVTARLSFTGTHNDKKIDFFAIDILHVKDGKITEDWHLEDNLTLKQQLGLIAEE,soluble
3,MSLSVPQKRYFLGLHIGHDRAITVADDTNLVFHTAVERLDRKKHSDSFHLPVEEIKTVLLYLNVDVSELRGVCISYLAVDASRVSMTLEASFRDAFPDFEGRFSALDHHLAHALGAKVCSGFDEALVVVADGAGDQRLWGSQSETIYHVSSDTFYLLDERVQSPPLTYINRPEFYDPSYFRPDDQERQISLGLKYEQITYLCGFGPGQAGQTMALAAFGKPLFDYRNMLPKDLSFSLRYTDFLREFEALARADGLSLIQFAKSRRSDIAATYQAYLSEALSAIVKDALDRFPSKRVCFSGGLFLNCLSNRRLHDEHPDRELFFFPACNDEGQSIGTAAYAYWQEHSRLPREGHHHHHH,not soluble
4,MTAAIAAPAYDAIVIGSGIGGLVTATQLAAKGAKVLVLERYLIPGGSAGWFEREGYRFDFGASIIFGFGDPGTTNLLTPPLADVGQALETIPDPVQIHYHLPNQLDLKVHRDYEAFLQELIAQFPQEAEGIRRFYDECWQVFNCLNAMPLLSLEEPKYLFNVFLQHPLACLGLVKYLPQNVGDIARRYIRNPDLLKFIDMECYCWSVVPATMTPMINAGMVFSDRHYGGINYPKGGVGRIAEKLVAGLEAKGSSIRYKARVTRILTEKGRAIGVELADGEKLYAKRIISNATRWNTFGELLPPQQEPAQEQRWQQRYRQSPSFLSLHLGVKADLLPAGTECHHILLENWDELEVEQGTIFVSIPTLLDPSLAPPDRHIIHTFTPSWLGEWDNLSPSEYRDRKAAAAAKLIQRLEAIFPGLSSAIDYQEVGTPRTHRRFLGRQNGTYGPIPRRKLAGLLGMPFNRTAIPGLYCVGDSTFPGQGLNAVAFSGYACGHRVAADLGLVLEHHHHHH,not soluble
5,PSIKSGTILHAWNWSFNTLKNNMKDIHDAGYTAIQTSPINQVKEGNKGDKSMGNWYWLYQPTSYQIGNRYLGSEEEFKEMCAAAEEYGVKVIVDAVINHTTSDYAAISNEIKSISNWTHGNTQIKNWSDRWDVTQNSLLGLYDWNTQNTQVQSYLKRFLERALNDGADGFRYDAAKHIELPDDGNYGSQFWPNITNTSAEFQYGEILQDSASRDAAYANYMNVTASNYGHSIRSALKNRNLSVSNISHYASDVSADKLVTWVESHDTYANDDEESTWMSDDDIRLGWAVIASRSGSTPLFFSRPDGGGNGVRFPGKTQIGDRGSALFEDQAIVAVNTFHNVMAGQPEELSNPNGNNQIFMNQRGSKGVVLANAGSSSVSINASTKLPDGSYDNKAGTGSFQVRDGKLTGTINARSVAVLYPD,soluble
